Laboratory results from US20150065434A1 (MUSC FOUNDATION FOR RESEARCH DEVELOPMENT, published 2015).
Bridge positions count the residues as written; N and C are the ends. Ends that are not written are not given here.

Experiments:
[1] = molecular target: T1, human monoamine oxidase B (human, UniProt P27338 1-520, limits assumed); test: cell-based or functional assay
T1 sequence (looked up): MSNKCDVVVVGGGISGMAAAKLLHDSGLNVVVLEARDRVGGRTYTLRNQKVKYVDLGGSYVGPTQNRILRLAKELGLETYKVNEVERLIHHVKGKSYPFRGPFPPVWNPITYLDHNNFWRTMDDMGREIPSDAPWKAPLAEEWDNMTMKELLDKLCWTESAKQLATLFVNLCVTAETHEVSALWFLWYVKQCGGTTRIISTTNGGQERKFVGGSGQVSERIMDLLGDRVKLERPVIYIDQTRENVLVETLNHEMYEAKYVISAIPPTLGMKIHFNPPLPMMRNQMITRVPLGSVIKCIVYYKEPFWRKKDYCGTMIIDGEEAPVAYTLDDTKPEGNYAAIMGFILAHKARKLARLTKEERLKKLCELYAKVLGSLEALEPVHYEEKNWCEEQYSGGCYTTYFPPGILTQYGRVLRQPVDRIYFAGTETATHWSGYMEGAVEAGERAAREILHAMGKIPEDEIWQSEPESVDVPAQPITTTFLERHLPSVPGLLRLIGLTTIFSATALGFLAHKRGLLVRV

[2] = molecular target: T2, human monoamine oxidase A (human, UniProt P21397 1-527, limits assumed); test: cell-based or functional assay
T2 sequence (looked up): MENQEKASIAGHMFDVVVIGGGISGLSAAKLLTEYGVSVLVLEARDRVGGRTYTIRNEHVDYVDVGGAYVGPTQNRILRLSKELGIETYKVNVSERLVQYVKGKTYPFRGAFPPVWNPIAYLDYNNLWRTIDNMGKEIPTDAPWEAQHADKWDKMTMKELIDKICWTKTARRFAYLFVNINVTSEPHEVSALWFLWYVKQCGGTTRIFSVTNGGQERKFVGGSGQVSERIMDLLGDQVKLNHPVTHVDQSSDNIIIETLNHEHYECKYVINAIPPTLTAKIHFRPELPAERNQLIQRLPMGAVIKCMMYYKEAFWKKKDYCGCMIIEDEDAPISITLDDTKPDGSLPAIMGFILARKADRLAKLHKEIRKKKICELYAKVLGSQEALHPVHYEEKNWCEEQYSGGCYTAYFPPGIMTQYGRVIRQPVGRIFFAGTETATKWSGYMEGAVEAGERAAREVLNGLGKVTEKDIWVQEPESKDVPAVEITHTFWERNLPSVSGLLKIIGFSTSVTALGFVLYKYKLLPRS

Question: Which “IC50 (inhibition of MAO-B)” value [1] does the source give for ARTMKTARKETGGKAPRKQLA-NH2 (lactam 5-10) [[Met]^4 H3 (1-21)-NH2 cyclic peptide 11, lactam bridge between Lys5 and Glu10] here?
Answer: > 100 µM

Question: And the “IC50 (inhibition of MAO-A)” value [2]?
Answer: > 100 µM
